Publication PMC8136818

What follows are sequences tested on SmpO45 (Staphylococcus aureus plasmid pWBG745) (assay: SPR). Conditions: SPR: 10 mM HEPES, 150-300 mM NaCl, 3 mM EDTA, 0.05% Tween 20, 1 uM protein (pH, temperature not given); EMSA: Li-Cor binding buffer, 0.5 ug/ul herring sperm ….
With “TTTATTGTGGGGTCACTTTAAATTCTTTAA / TTAAAGAATTTAAAGTGACCCCACAATAAACCTACCCTACGTCCTCCTGC [OT45.4]” the binding signal was 30 % Rmax. “GACACTATAGTTTATTGTGGGGTCACTTTA / TAAAGTGACCCCACAATAAACTATAGTGTCCCTACCCTACGTCCTCCTGC [OT45.3]” was tested, and the binding signal was 30 % Rmax. With “CCCCATAAAATATGGGGTCATATTTCCCTT / AAGGGAAATATGACCCCATATTTTATGGGGCCTACCCTACGTCCTCCTGC [OT45.10]” the binding signal was 30 % Rmax.
